Variants at the floor of the assay were thinned out.
What was measured:
biotinyl-Phe-oxazolone = assay: self-aminoacylation, catalytic enhancement (BFO) (fold over background); higher = more active; k-Seq, kA / k0A0; sequences stand for … in GGGAAUGGAUCCACAUCUACGAAUUC…UUCACUGCAGACUUGACGAAGCUG
In short: (§1)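 Working in 50 μL HEPES/NaCl/KCl/MgCl2/CaCl2 buffer with 5% acetonitrile at pH 6.9–7.0, mutagenized RNA pools (0.43 μM; 21-nt variable region) were reacted with 2–1250 μM of each biotinyl-aminoacyl-oxazolone for 90 minutes at room temperature. Streptavidin capture followed, with quantification by triplicate qPCR and Illumina sequencing. Catalytic enhancement is reported as median kA over the uncatalyzed rate, the low-activity peak of a bimodal Gaussian fit to the data.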

biotinyl-Ile-oxazolone = assay: self-aminoacylation, catalytic enhancement (BIO) (fold over background); higher = more active; k-Seq, kA / k0A0; sequences stand for … in GGGAAUGGAUCCACAUCUACGAAUUC…UUCACUGCAGACUUGACGAAGCUG
In short: as §1

biotinyl-Met-oxazolone = assay: self-aminoacylation, catalytic enhancement (BMO) (fold over background); higher = more active; k-Seq, kA / k0A0; sequences stand for … in GGGAAUGGAUCCACAUCUACGAAUUC…UUCACUGCAGACUUGACGAAGCUG
In short: as §1

biotinyl-Val-oxazolone = assay: self-aminoacylation, catalytic enhancement (BVO) (fold over background); higher = more active; k-Seq, kA / k0A0; sequences stand for … in GGGAAUGGAUCCACAUCUACGAAUUC…UUCACUGCAGACUUGACGAAGCUG
In short: as §1

biotinyl-Leu-oxazolone = assay: self-aminoacylation, catalytic enhancement (BLO) (fold over background); higher = more active; k-Seq, kA / k0A0; sequences stand for … in GGGAAUGGAUCCACAUCUACGAAUUC…UUCACUGCAGACUUGACGAAGCUG
In short: as §1

biotinyl-Trp-oxazolone = assay: self-aminoacylation, catalytic enhancement (BWO) (fold over background); higher = more active; k-Seq, kA / k0A0; sequences stand for … in GGGAAUGGAUCCACAUCUACGAAUUC…UUCACUGCAGACUUGACGAAGCUG
In short: as §1

Sequence	self-aminoacylation (biotinyl-Phe-oxazolone)	self-aminoacylation (biotinyl-Ile-oxazolone)	self-aminoacylation (biotinyl-Met-oxazolone)	self-aminoacylation (biotinyl-Val-oxazolone)	self-aminoacylation (biotinyl-Leu-oxazolone)	self-aminoacylation (biotinyl-Trp-oxazolone)
CUACUUCAGACAAUCGGUAUG [Fam1A.1 aminoacylation ribozyme variant]	0.586	0.719	0.636	0.704	0.717	0.529
CUACUUCAGACAAUCGGUCAG [Fam1A.1 aminoacylation ribozyme variant]	1.26	0.805	0.73	0.83	0.872	0.771
CUACUUCAGACUAUCGGUCUG [Fam1A.1 aminoacylation ribozyme variant]	0.949	0.816	0.734	0.943	0.832	0.939
CUACUUCAUACAAUCGGACUG [Fam1A.1 aminoacylation ribozyme variant]	0.573	0.751	0.418	0.676	0.609	0.387
CUACUUCAUACAAUCGGUAUG [Fam1A.1 aminoacylation ribozyme variant]	0.628	0.431	0.508	0.731	0.468	0.34
CUACUUCAUACAAUCGGUCUA [Fam1A.1 aminoacylation ribozyme variant]	0.751	0.835	0.926	0.703	0.68	0.555
CUACUUCAUACAAUCGGUCUG [Fam1A.1 aminoacylation ribozyme variant]	0.808	0.707	0.668	0.743	0.643	0.553
CUACUUCAUACGAUCGGUCUG [Fam1A.1 aminoacylation ribozyme variant]	0.597	0.61	0.624	0.852	0.526	0.824
CUACUUCCAACAAGCGGUCUG [Fam1A.1 aminoacylation ribozyme variant]	0.744	1.21	1.04	0.95	0.79	0.678
CUACUUCCAACAAUCGGUAUG [Fam1A.1 aminoacylation ribozyme variant]	0.634	0.654	0.611	0.782	0.663	0.533
CUACUUCCAACAAUCGGUCGG [Fam1A.1 aminoacylation ribozyme variant]	0.78	1.04	1.01	1.07	1.03	1.28
CUACUUCCAACAAUCGGUCUA [Fam1A.1 aminoacylation ribozyme variant]	0.924	0.839	0.632	0.892	0.701	0.598
CUACUUCCAACAAUCGGUUUG [Fam1A.1 aminoacylation ribozyme variant]	0.87	0.747	0.713	0.76	0.645	0.678
CUACUUCCAACAAUCUGUCUG [Fam1A.1 aminoacylation ribozyme variant]	0.746	0.776	0.488	0.757	0.59	0.438
CUACUUCCAACUAUCGGUCUG [Fam1A.1 aminoacylation ribozyme variant]	1.08	0.81	0.833	0.92	0.942	0.744
CUACUUCCAAGAAUCGGUCUG [Fam1A.1 aminoacylation ribozyme variant]	0.97	0.838	0.934	0.776	0.762	1.04
CUACUUCGAACAAUCGGUCUC [Fam1A.1 aminoacylation ribozyme variant]	0.828	0.781	0.66	0.683	0.648	0.507
CUACUUCGAACAAUCGGUCUG [Fam1A.1 aminoacylation ribozyme variant]	0.684	0.623	0.618	0.684	0.614	0.566
CUACUUCGAACAAUCGGUUUG [Fam1A.1 aminoacylation ribozyme variant]	0.591	0.649	0.581	0.717	0.526	0.404
CUACUUCGAUCAAUCGGUCUG [Fam1A.1 aminoacylation ribozyme variant]	0.778	0.591	0.528	0.584	0.585	0.434
CUACUUCUAACAAUCAGUCUG [Fam1A.1 aminoacylation ribozyme variant]	0.82	0.663	0.524	0.689	0.603	0.502
